Laboratory results from patent publication US20060229438A1, “Monoclonal antibody derived peptide inhibitors for mycobacterial dna gyrase” (priority 2002, published 2006).
Values after ≈ are worked out from the molar mass of the structure shown.

Key:
[1] = test system: ciprofloxacin resistant M. smegmatis mc^2155 strain; test: Ciprofloxacin susceptibility (MIC50) of resistant strain; assay type: cell-based; settings: Mycolicibacterium smegmatis
[2] = target: T1, M. smegmatis DNA gyrase (Mycolicibacterium smegmatis, UniProt Q59556); test: DNA supercoiling assay, M. smegmatis DNA gyrase; assay type: biochemical
T1 construct: made in house
T1 sequence (Q59556 whole entry): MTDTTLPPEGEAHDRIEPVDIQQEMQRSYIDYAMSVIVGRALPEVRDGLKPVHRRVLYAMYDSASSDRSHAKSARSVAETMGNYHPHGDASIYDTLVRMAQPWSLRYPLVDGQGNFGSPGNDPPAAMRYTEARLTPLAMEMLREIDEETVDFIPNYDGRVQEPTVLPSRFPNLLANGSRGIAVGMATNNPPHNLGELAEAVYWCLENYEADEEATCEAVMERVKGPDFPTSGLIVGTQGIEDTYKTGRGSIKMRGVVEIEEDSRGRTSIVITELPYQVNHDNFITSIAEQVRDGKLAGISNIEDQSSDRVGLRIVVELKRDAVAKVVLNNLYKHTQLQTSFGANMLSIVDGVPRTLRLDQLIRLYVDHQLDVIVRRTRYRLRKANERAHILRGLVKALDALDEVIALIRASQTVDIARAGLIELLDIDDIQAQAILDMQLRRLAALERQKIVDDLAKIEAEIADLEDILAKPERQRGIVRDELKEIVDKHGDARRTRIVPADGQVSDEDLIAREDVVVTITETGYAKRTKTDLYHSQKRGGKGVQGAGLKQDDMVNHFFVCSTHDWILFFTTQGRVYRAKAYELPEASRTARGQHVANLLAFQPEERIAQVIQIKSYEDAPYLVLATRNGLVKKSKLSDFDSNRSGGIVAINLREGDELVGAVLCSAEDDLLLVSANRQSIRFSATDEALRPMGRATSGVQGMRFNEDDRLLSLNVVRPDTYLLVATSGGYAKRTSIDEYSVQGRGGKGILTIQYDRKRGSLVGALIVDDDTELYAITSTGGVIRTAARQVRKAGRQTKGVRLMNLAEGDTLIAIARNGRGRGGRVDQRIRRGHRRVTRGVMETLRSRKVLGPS
T1 sequence (P0C559 2-675, further chain): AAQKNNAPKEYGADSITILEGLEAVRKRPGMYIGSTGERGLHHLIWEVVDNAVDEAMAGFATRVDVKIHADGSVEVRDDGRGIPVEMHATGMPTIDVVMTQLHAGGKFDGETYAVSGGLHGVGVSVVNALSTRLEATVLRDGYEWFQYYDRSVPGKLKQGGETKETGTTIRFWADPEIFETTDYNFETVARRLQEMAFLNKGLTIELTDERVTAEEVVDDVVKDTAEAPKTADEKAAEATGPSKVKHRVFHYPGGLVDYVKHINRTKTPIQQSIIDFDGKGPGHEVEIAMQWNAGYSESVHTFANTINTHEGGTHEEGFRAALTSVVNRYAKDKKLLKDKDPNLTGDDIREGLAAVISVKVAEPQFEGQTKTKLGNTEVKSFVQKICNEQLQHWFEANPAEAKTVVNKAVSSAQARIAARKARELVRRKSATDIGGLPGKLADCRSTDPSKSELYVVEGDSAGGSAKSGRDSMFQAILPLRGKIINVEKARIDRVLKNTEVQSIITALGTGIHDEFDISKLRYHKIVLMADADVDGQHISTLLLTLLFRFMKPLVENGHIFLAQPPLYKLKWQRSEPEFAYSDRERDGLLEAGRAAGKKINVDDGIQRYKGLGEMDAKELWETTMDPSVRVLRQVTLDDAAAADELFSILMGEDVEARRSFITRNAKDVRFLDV

[3] = test system: DNA gyrase from ciprofloxacin resistant M. smegmatis mc^2155 strain; assay type: biochemical
[4] = target: T2, M. smegmatis DNA gyrase A subunit (GyrA) (Mycobacterium smegmatis, UniProt P48354 1-842); test: SPR (BIAcore 2000), M. smegmatis GyrA immobilized on CM5 chip
T2 construct: also called M. smegmatis GyrA
T2 sequence (P48354 whole entry): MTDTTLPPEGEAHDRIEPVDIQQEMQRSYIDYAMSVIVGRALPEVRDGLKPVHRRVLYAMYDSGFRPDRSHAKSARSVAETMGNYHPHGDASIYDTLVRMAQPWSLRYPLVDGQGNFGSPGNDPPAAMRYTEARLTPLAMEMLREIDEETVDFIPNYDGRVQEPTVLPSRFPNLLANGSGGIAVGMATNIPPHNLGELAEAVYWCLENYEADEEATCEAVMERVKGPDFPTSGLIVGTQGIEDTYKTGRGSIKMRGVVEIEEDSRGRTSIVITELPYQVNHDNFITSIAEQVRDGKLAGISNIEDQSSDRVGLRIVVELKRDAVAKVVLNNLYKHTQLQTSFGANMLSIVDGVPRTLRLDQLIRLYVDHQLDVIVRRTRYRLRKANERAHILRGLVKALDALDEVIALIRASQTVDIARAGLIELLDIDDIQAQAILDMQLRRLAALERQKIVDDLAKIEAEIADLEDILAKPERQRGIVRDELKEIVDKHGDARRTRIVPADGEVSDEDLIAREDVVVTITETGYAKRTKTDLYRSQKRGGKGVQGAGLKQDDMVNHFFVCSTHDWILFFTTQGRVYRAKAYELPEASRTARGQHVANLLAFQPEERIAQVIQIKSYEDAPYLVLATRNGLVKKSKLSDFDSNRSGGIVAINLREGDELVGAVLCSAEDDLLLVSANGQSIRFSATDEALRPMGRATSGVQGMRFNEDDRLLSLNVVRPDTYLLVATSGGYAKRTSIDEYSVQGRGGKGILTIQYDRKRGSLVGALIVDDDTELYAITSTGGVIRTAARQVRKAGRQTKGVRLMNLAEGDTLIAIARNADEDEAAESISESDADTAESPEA
Experimental: Binding parameters were determined by Surface Plasmon Resonance (SPR) spectroscopy using a BIAcore 2000 system, Uppsala, Sweden. The over-expressed and purified M. smegmatis GyrA was immobilized on the CM5 sensor chip at a concentration of 400 resonance units (RU) as per manufacturer's instructions. All measurements were carried out in a continuous flow of HBS buffer (10 mM HEPES, 150 mM NaCl, 5 mM EDTA and 0.05 % Surfactant P-20, pH 7.4) at 10 μl/min. […] The kinetic data were analyzed using the BIA evaluation software (Version 3.0). The surface was regenerated by a pulse of 5 μL of 100 mM NaOH for further experimentation as required.

## O=C(O)c1cn(C2CC2)c2cc(N3CCNCC3)c(F)cc2c1=O [ciprofloxacin, reference compound]
[1]
  MIC50: 64 µg/mL (≈ 193 µM)
[2]
  IC50: ~15.1 µM

## KASGYSFTVYYIYWVK [CDR:H1]
[3]
  concentration at which DNA supercoiling activity was inhibited: 10 µM
[2]; supercoiling activity
  peptide concentration for complete inhibition of enzyme activity: 5 to 10 µM

B1: scFv:GyrA, engineered single chain antibody of MsGyrA:C3 (scFv)
scFv: AQVKLQQSGAELVRPGASVKLSCKASGYSFTVYYIYWVKQRPGQALEWIGEINPSNGGTNFNEKFKTKATLTVDKSTSTVYMQLSSLTSEDSAVYYCTRWGLRRGFAYWGQGTTVTVSSSGGGSGGGGSGGGGSDIELTQSPKSMSMSVGERVTLSCKASENVGTHVSWYQQRPEESPKLLIYGASNRYTGVPDRFTGSGSATDFTLTISNVQAEDLADYHCGQTYSYPFTFGLGTKLEIKRAAAGAPVPYPDPLEPRAA
notes: also called ScFV:GyraA; soluble scFv
[4]
  Kd: 0.000217 µM

B2: scFv:GyrA: engineered single chain antibody fragment of MsGyrA:C3, monovalent 30 kDa polypeptide, Seq. ID #2, encoded by pVNUHMscFv (protein)
scFv: AQVKLQQSGAELVRPGASVKLSCKASGYSFTVYYIYWVKQRPGQALEWIGEINPSNGGTNFNEKFKTKATLTVDKSTSTVYMQLSSLTSEDSAVYYCTRWGLRRGFAYWGQGTTVTVSSSGGGSGGGGSGGGGSDIELTQSPKSMSMSVGERVTLSCKASENVGTHVSWYQQRPEESPKLLIYGASNRYTGVPDRFTGSGSATDFTLTISNVQAEDLADYHCGQTYSYPFTFGLGTKLEIKRAAAGAPVPYPDPLEPRAA
[3]
  concentration at which DNA supercoiling activity was inhibited: 0.05 µM
[2]
  concentration at which the supercoiling reaction was inhibited: 10 to 20 nM
[2]; enzyme preincubated with antibody, relaxed pUC18 DNA
  inhibition of DNA gyrase supercoiling activity: inhibited
